According to US20150037333A1 (NEXVET AUSTRALIA, published 2015):

B1: canine TNFR-HCC (caTNFRp50:ca IgGHCC Fc), SEQ ID NO:8 (Fc fusion)
chain: LVPHPRNRVKRAILCPQGKYIHPQDDSICCTKCHKGTYLYNDCPGPGLDTDCRECENGTFTASENHLRQCLSCSKCRKEMNQVEISPCTVYRDTVCGCRKNQYRFYWSETLFQCNNCSLCLNGTVQISCQEKQNTICTCHAGFFLREHECVSCVNCKKNTECGKLCLPPVETVKVPQDPGSTAKECECKCNCNNCPCPGCGLLGGPSVFIFPPKPKDILVTARTPTVTCVVVDLDPENPEVQISWFVDSKQVQTANTQPREEQSNGTYRVVSVLPIGHQDWLSGKQFKCKVNNKALPSPIEEIISKTPGQAHQPNVYVLPPSRDEMSKNTVTLTCLVKDFFPPEIDVEWQSNGQQEPESKYRMTPPQLDEDGSYFLYSKLSVDKSRWQRGDTFICAVMHEALHNHYTQISLSHSPGK
notes: Expressed in CHO cells; also called caTNFrecp60-HCC; canine TNFR-HCC fusion protein
B2: canine TNFR-HCB (caTNFRp50:ca IgGHCB Fc), SEQ ID NO:7 (Fc fusion)
chain: LVPHPRNRVKRAILCPQGKYIHPQDDSICCTKCHKGTYLYNDCPGPGLDTDCRECENGTFTASENHLRQCLSCSKCRKEMNQVEISPCTVYRDTVCGCRKNQYRFYWSETLFQCNNCSLCLNGTVQISCQEKQNTICTCHAGFFLREHECVSCVNCKKNTECGKLCLPPVETVKVPQDPGSTPKRENGRVPRPPDCPKCPAPEMLGGPSVFIFPPKPKDTLLIARTPEVTCVVVDLDPEDPEVQISWFVDGKQMQTAKTQPREEQFNGTYRVVSVLPIGHQDWLKGKQFTCKVNNKALPSPIERTISKARGQAHQPSVYVLPPSREELSKNTVSLTCLIKDFYPPDIDVEWQSNGQQEPESKYRTTPPQLDEDGSYFLYSKLSVDKSRWQRGDTFICAVMHEALHNHYTQESLSHSPGK
notes: Expressed in CHO cells; also called caTNFrecp60-HCB; canine TNFR-HCB fusion protein

Tests used:
[1] = target: T1, complement C1q (from normal human serum) (human, UniProt P02745 23-245; P02746 28-253; P02747 29-245); assay: C1q binding ELISA; fusion protein on plates coated with canine TNF (4 µg/ml), human serum as source of complement
T1 construct: Native C1q in normal human serum, detected with a C1q reactive polyclonal antibody-HRP conjugate
Protocol: The canine TNFR-HCB, canine TNFR-HCC and human TNFR-canine HCB fusion proteins were incubated with plates pre-coated with canine TNF (4 μg/ml). For comparison, a caninised monoclonal antibody (MAb, canine isotype HCB) with specificity to nerve growth factor (NGF) was incubated with plates coated with NGF. The plates were washed and incubated with normal or heat-killed human serum as a source of complement. Binding of complement C1q was detected using a C1q reactive polyclonal antibody-HRP conjugate.

[2] = target: canine TNF-alpha (canine, UniProt P51742 77-233); assay: cell-based or functional assay
canine TNF-alpha, sequence (P51742 77-233 limits assumed): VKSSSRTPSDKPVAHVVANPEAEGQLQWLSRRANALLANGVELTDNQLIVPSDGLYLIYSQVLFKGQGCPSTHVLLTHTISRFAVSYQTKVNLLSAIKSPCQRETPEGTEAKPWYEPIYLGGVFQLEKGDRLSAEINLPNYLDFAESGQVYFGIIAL

T1 sequence (P02745 23-245 limits assumed, chain 1 of 3): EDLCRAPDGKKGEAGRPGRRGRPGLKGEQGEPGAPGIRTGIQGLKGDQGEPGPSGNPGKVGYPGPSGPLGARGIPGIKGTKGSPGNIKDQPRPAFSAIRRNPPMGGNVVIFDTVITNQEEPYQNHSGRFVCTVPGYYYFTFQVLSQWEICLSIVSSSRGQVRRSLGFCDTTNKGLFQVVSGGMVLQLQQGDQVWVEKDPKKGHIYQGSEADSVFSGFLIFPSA
T1 sequence (P02746 28-253 limits assumed, chain 2 of 3): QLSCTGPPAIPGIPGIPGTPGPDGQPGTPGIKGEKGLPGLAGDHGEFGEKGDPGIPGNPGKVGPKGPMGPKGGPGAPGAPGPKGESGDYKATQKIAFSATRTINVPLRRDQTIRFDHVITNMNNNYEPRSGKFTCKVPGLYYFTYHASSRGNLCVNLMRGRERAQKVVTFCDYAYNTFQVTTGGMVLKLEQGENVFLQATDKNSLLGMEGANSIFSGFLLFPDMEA
T1 sequence (P02747 29-245 limits assumed, chain 3 of 3): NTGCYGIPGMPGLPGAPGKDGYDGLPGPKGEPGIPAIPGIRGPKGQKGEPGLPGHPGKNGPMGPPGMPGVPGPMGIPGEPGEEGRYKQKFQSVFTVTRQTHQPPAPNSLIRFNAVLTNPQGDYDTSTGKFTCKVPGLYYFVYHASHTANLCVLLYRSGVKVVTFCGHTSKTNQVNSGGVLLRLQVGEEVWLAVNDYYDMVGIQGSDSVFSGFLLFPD

| Binder | binding result [1] | inhibition of canine TNF-alpha bioactivity (1 ng/ml) in 293-HEK cells with NF-kB-EGFP reporter construct pTRH1; IC50 [2] [ng/ml] |
| --- | --- | --- |
| B1 | no binding | ~1 |
| B2 | no binding | ~1 |
